Paper PMC4960319, “The anti-sigma factor RsrA responds to oxidative stress by reburying its hydrophobic core” (Nature Communications, 2016)
Several values for one entry are separate records, joined by “and”; a condition that tells them apart may be missing. Equal entries are not always repeated. Blank lines part the entries; values can stand above or below the binder they belong to.

Key:
Conditions in all cases: both partners purified
σR Trp88Ile Trp119Ile = target: T1, σR Trp88Ile Trp119Ile (Streptomyces coelicolor, UniProt Q7AKG9 5-227, Trp88Ile | Trp119Ile); test: ITC; competition ITC as for the wild-type complex (Figure 3a): RsrAred.Zn2+ (100 μM) titrated into σR (10 μM, cell) in the presence of 50 μM weak competitor RsrA* Cys11Ser Cys44Ser; 35 °C, 50 mM Tris pH 7.5, 100 mM NaCl, 2 mM DTT
T1 construct: ECF sigma factor σR (SigR) of Streptomyces coelicolor; mutant of the tagless construct of residues 5-227 (all σR mutants were similarly purified); The limits are those of the wild-type construct; source: E. coli BL21(DE3), purified as wild-type σR

σR (residues 5-227) [1] = target: T2, σR (residues 5-227) (Streptomyces coelicolor, UniProt Q7AKG9 5-227); test: stopped-flow tryptophan fluorescence; 25 °C, with zinc; kon: pseudo-first-order, σR 125 nM, RsrA 1.25-2.5 μM; koff: 2.5 μM complex displaced with 25 μM σR Trp88Ile Trp119Ile; Kd = koff/kon; 50 mM Tris pH 7.5, 100 mM NaCl, 2 mM DTT
T2 construct: ECF sigma factor σR (SigR) of Streptomyces coelicolor; residues 5-227 subcloned into pET21a with a C-terminal stop codon for tagless expression; also called sigma factor σR; SigR; source: E. coli BL21(DE3), purified without tags (ammonium sulfate precipitation, Q-Sepharose, Hi-Load S75)

σR (residues 5-227) [2] = target: T2, σR (residues 5-227); test: stopped-flow tryptophan fluorescence; 35 °C, with zinc; kon: pseudo-first-order, σR 125 nM, RsrA 1.25-2.5 μM; koff: 2.5 μM complex displaced with 25 μM σR Trp88Ile Trp119Ile; Kd = koff/kon; 50 mM Tris pH 7.5, 100 mM NaCl, 2 mM DTT
σR (residues 5-227) [3] = target: T2, σR (residues 5-227); test: stopped-flow tryptophan fluorescence; 25 °C, without zinc (EDTA-treated RsrA); kon: pseudo-first-order, σR 125 nM, RsrA 1.25-2.5 μM; koff: 2.5 μM complex displaced with 25 μM σR Trp88Ile Trp119Ile; Kd = koff/kon; 50 mM Tris pH 7.5, 100 mM NaCl, 2 mM DTT
σR (residues 5-227) [4] = target: T2, σR (residues 5-227); test: stopped-flow tryptophan fluorescence; 35 °C, without zinc (EDTA-treated RsrA); kon: pseudo-first-order, σR 125 nM, RsrA 1.25-2.5 μM; koff: 2.5 μM complex displaced with 25 μM σR Trp88Ile Trp119Ile; Kd = koff/kon; 50 mM Tris pH 7.5, 100 mM NaCl, 2 mM DTT
σ^R Trp88Ile Trp119Ile = target: T3, σ^R Trp88Ile Trp119Ile (Streptomyces coelicolor, UniProt Q7AKG9 5-227, Trp88Ile | Trp119Ile); test: stopped-flow tryptophan fluorescence; dissociation by competition, with zinc: 2.5 μM complex mixed with 25 μM σ^R Trp88Ile Trp119Ile (10-fold excess); 25 or 35 °C, 50 mM Tris pH 7.5, 100 mM NaCl
T3 construct: ECF sigma factor σ^R (SigR) of Streptomyces coelicolor; both tryptophans replaced; The limits 5-227 are those stated for the tagless wild-type construct; source: E. coli BL21(DE3), purified as wild-type σ^R ("All σ^R mutants were similarly purified")

[5] = target: T4, σ^R (sigma factor SigR) from Streptomyces coelicolor, residues 5-227, tagless (Streptomyces coelicolor, UniProt Q7AKG9 5-227); test: as above
T4 construct: ECF sigma factor σ^R (SigR) of Streptomyces coelicolor, residues 5-227 subcloned into pET21a (NdeI, BamHI) with a C-terminal stop codon; also called wild-type σ^R; source: E. coli BL21(DE3), pET21a, purified without tags (ammonium sulfate, Q-Sepharose, Hi-Load S75)

[6] = target: T4, σ^R (sigma factor SigR) from …; test: ITC; direct titration in the absence of zinc: RsrA^red (100 μM), σ^R (10 μM); 35 °C, 50 mM Tris pH 7.5, 100 mM NaCl, 2 mM DTT; single site model
[7] = target: T4, σ^R (sigma factor SigR) from …; test: ITC; competition ITC: RsrA^red.Zn^2+ (100 μM) titrated into σ^R (10 μM) with 50 μM weak-binding RsrA mutant in the cell; 35 °C, 50 mM Tris pH 7.5, 100 mM NaCl, 2 mM DTT; competitive binding model
[8] = target: T4, σ^R (sigma factor SigR) from …; test: stopped-flow tryptophan fluorescence; dissociation by competition, without zinc (apo-RsrA): 2.5 μM complex mixed with 25 μM σ^R Trp88Ile Trp119Ile (10-fold excess); 25 °C, 50 mM Tris pH 7.5, 100 mM NaCl
σR (residues 5-227) [9] = target: T2, σR (residues 5-227); test: ITC; without zinc (-); direct titration; 35 °C, 50 mM Tris pH 7.5, 100 mM NaCl, 2 mM DTT; single binding site model
σR (residues 5-227) [10] = target: T2, σR (residues 5-227); test: ITC; with zinc (+); 35 °C, 50 mM Tris pH 7.5, 100 mM NaCl, 2 mM DTT; the table does not tell whether this sub-nanomolar value came from a direct or a competition titration
[11] = target: T4, σ^R (sigma factor SigR) from …; test: ITC; RsrA mutants (values in Supplementary Table 1); 35 °C, 50 mM Tris pH 7.5, 100 mM NaCl, 2 mM DTT; direct titration for weaker binding mutants (10 μM RsrA in the cell, 100 μM σ^R in the syringe); RsrA preincubated with ZnCl2 and buffer exchanged where zinc was included

binding result (σ^R Trp88Ile Trp119Ile): binds
koff [5]: ~2.3 s⁻¹
B3: RsrA* Cys11His Cys41His Cys44His (natural protein, Streptomyces coelicolor, UniProt Q7AKG8 1-105, looked up)
chain: MSAGEPHETDHSEILDHLYEFLDKEMPDSDAVKFEHHFEEHSPHLEKYGLEQAVKKLVKRAAGQDDVPGDLRAKVMGRLDLIRSGQSVPEHDVAAAPSSSAPQES
notes: Non-oxidative control; also called triple mutant; RsrA*^red.Zn^2+ Cys11His Cys41His Cys44His; source: E. coli BL21(DE3) pLysS, purified using a His-tag that was removed by thrombin cleavage; not shown: His-tag, N-terminal, cleaved

binding result (σ^R Trp88Ile Trp119Ile): binds
koff [5]: 0.0027 s⁻¹
B4: RsrA* (RsrA with Cys3, Cys31, Cys61 and Cys62 mutated to alanine) (natural protein, Streptomyces coelicolor, UniProt Q7AKG8 1-105, looked up)
chain: MSAGEPHETDCSEILDHLYEFLDKEMPDSDAVKFEHHFEECSPCLEKYGLEQAVKKLVKRAAGQDDVPGDLRAKVMGRLDLIRSGQSVPEHDVAAAPSSSAPQES
notes: the four non-essential cysteines mutated to alanine; also called RsrA*^red.Zn^2+; source: E. coli BL21(DE3) pLysS, purified using a His-tag that was removed by thrombin cleavage; not shown: His-tag, N-terminal, cleaved

binding result [11]: binds
B7: RsrA* Cys44His (natural protein, Streptomyces coelicolor, UniProt Q7AKG8 1-105, looked up)
chain: MSAGEPHETDCSEILDHLYEFLDKEMPDSDAVKFEHHFEECSPHLEKYGLEQAVKKLVKRAAGQDDVPGDLRAKVMGRLDLIRSGQSVPEHDVAAAPSSSAPQES
notes: source: E. coli BL21(DE3) pLysS, purified using a His-tag that was removed by thrombin cleavage; not shown: His-tag, N-terminal, cleaved

Second part, the binder before the results:

B1: RsrA wild type (natural protein, Streptomyces coelicolor, UniProt Q7AKG8 1-105, looked up)
chain: MSCGEPHETDCSEILDHLYEFLDKEMPDSDCVKFEHHFEECSPCLEKYGLEQAVKKLVKRCCGQDDVPGDLRAKVMGRLDLIRSGQSVPEHDVAAAPSSSAPQES
notes: Reduced protein; used with one equivalent of zinc or after EDTA treatment without zinc (told by the assay); also called RsrAred.Zn2+ (with one zinc); RsrAred (without zinc); source: E. coli BL21(DE3) pLysS, purified by a His-tag that was removed by thrombin; not shown: His tag, N-terminal, cleaved
Kd (σR Trp88Ile Trp119Ile): 0.173 nM
stoichiometry N (σR Trp88Ile Trp119Ile): 1.17
Kd (σR (residues 5-227) [1]): 0.13 nM
koff (σR (residues 5-227) [1]): 0.00071 s⁻¹
kon (σR (residues 5-227) [1]): 5.4e+06 M⁻¹ s⁻¹
Kd (σR (residues 5-227) [2]): 0.27 nM
koff (σR (residues 5-227) [2]): 0.0024 s⁻¹
kon (σR (residues 5-227) [2]): 8.9e+06 M⁻¹ s⁻¹
Kd (σR (residues 5-227) [3]): 24.9 nM
koff (σR (residues 5-227) [3]): 0.286 s⁻¹
kon (σR (residues 5-227) [3]): 1.15e+07 M⁻¹ s⁻¹
Kd (σR (residues 5-227) [4]): 62.4 nM
koff (σR (residues 5-227) [4]): 1.08 s⁻¹
kon (σR (residues 5-227) [4]): 1.73e+07 M⁻¹ s⁻¹

B2: RsrA* Cys11His (natural protein, Streptomyces coelicolor, UniProt Q7AKG8 1-105, looked up)
chain: MSAGEPHETDHSEILDHLYEFLDKEMPDSDAVKFEHHFEECSPCLEKYGLEQAVKKLVKRAAGQDDVPGDLRAKVMGRLDLIRSGQSVPEHDVAAAPSSSAPQES
notes: The complex with σ^R analysed by native MS has a theoretical mass of 40,128.08 Da, which may mean that tags were present in that sample; also called RsrA*^red.Zn^2+ Cys11His; source: E. coli BL21(DE3) pLysS, purified using a His-tag that was removed by thrombin cleavage; not shown: His-tag, N-terminal, cleaved
binding result (σ^R Trp88Ile Trp119Ile): binds
koff [5]: 0.064 s⁻¹

B5: RsrA (wild type), anti-sigma factor from Streptomyces coelicolor (natural protein, UniProt Q7AKG8 1-105, looked up)
chain: MSCGEPHETDCSEILDHLYEFLDKEMPDSDCVKFEHHFEECSPCLEKYGLEQAVKKLVKRCCGQDDVPGDLRAKVMGRLDLIRSGQSVPEHDVAAAPSSSAPQES
notes: Used reduced with one zinc ion at the ZAS motif (RsrA^red.Zn^2+) or reduced without zinc (EDTA-treated); the assay tells which; also called RsrA^red.Zn^2+; RsrA^red; source: E. coli BL21(DE3) pLysS, purified using a His-tag that was removed by thrombin cleavage; not shown: His-tag, N-terminal, cleaved
Kd [6]: 79.3 ± 4.2 nM
dH [6]: -16.26 ± 0.13 kcal/mol
stoichiometry N [6]: 0.97 ± 0.004
Kd [7]: 0.78 nM and ~0.7 nM
dH [7]: -23.1 kcal/mol
stoichiometry N [7]: 1.01
fold, kinetically derived Kd at 25 °C lower than at 35 °C [5]: ~2 fold
fold increase of koff without zinc against with zinc [8]: 400 fold
koff [8]: ~0.3 s⁻¹

B6: RsrA* (natural protein, Streptomyces coelicolor, UniProt Q7AKG8 1-105, looked up)
chain: MSAGEPHETDCSEILDHLYEFLDKEMPDSDAVKFEHHFEECSPCLEKYGLEQAVKKLVKRAAGQDDVPGDLRAKVMGRLDLIRSGQSVPEHDVAAAPSSSAPQES
notes: also called RsrA*red.Zn2+; source: E. coli BL21(DE3) pLysS, purified by a His-tag that was removed by thrombin; not shown: His tag, N-terminal, cleaved
Kd (σR (residues 5-227) [9]): 183 nM
Kd (σR (residues 5-227) [10]): 0.23 nM

B8: RsrA* Cys11Ser Cys44Ser (natural protein, Streptomyces coelicolor, UniProt Q7AKG8 1-105, looked up)
chain: MSAGEPHETDSSEILDHLYEFLDKEMPDSDAVKFEHHFEECSPSLEKYGLEQAVKKLVKRAAGQDDVPGDLRAKVMGRLDLIRSGQSVPEHDVAAAPSSSAPQES
notes: as for B7
Kd [11]: 185 nM
